# Test results as given in CN111410689A (UNIV CHONGQING TECHNOLOGY, dated 2020).
# T1: HPV18E7蛋白 (in HeLa cells and HPV18-positive cervical adenocarcinoma tissue) (HPV18, UniProt P06788 1-105)
# T1 construct: whole, on cells; Native intracellular protein in cells, tissue sections or total lysate; also called HeLa细胞总蛋白中的HPV18E7蛋白
# T1 sequence: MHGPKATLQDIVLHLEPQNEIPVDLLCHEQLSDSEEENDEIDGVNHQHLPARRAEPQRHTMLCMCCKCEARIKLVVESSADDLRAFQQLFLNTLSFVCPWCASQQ
# Biological target: T1, HPV18E7蛋白 (in HeLa cells and …)
# Assay: immunocytochemistry on HeLa cells (HPV18 positive), DAB
binder,measurement,value
"抗HPV16E7蛋白单抗69E2 (antibody, mouse IgG2a, kappa, V domains shown, Mouse IgG2a from hybridoma, purified from ascites; also called HPV16E7-69E2; CCTCC NO:C2019181) VH: QVQLQQSGPEVVRPGVSVKISCKGSGYTFTDYAMHWVKQSHAKSLEWIGVISTYNGNTNYNQKFKGKATVTVDKSSSTAYMELARLTSEDSAIYYCARRGFGNSWFAYWGQGTLVTVSA VL: ENVLTQSPAIMSASPGGKVTMTCSASSGVSYMHWYQQKSSTSPKLWIYDTSNLASGVPGRFSGSGSGNSYSLTISSMEAEDVATYYCFQGSGYPFTFGSGTKLEIRR",binding result,no binding (tested: 7.8125ng/孔到1μg/孔)
